From patent US20120219559A1 (Johns Hopkins, published 2012)

Assays:
[1] = molecular target: T1, human CD28, full length, expressed on cells (CD28+293T cells) (human, UniProt P10747 19-220); test: CDS well image, 293T cells transfected with the human gene, stained with the human fusion protein
T1 construct: This id also stands for CD28 on purified human T cells in the functional rows; also called CD28+ cells

[2] = molecular target: T2, human B7-2 (CD86, B70) expressed on 293T cells (human, UniProt P42081 24-329); test: as above
T2 construct: whole, on cells
T2 sequence (looked up): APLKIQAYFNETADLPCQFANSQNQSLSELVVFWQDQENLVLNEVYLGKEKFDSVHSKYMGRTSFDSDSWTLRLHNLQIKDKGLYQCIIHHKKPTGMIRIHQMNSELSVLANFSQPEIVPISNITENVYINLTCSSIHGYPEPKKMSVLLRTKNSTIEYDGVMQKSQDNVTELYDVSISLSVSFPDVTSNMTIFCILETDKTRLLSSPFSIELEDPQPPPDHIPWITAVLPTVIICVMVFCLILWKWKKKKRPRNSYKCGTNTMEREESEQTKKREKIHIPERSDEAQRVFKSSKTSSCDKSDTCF

[3] = molecular target: T3, human B7-H2Ig fusion protein (human, UniProt O75144 19-258); test: SPR (BIAcore 3000); comparison of ICOSIg and CD28Ig on immobilized B7-H2Ig
T3 construct: Ig (Fc) part not given
T3 sequence: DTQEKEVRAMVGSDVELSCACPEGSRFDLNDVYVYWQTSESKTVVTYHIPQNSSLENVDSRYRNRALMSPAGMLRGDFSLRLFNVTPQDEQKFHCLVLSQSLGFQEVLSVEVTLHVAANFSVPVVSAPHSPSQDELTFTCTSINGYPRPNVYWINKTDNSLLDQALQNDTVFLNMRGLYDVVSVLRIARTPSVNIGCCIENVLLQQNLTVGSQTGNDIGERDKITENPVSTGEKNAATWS
Method: (§1) For all experiments, the same fusion proteins were injected into uncoated control flow cells to serve as the control. Binding data was overlaid with the fit of 1:1 interaction model.
(§2) Surface Plasmon Resonance. Protein interactions were measured and analyzed on a BIAcore 3000 instrument (BIAcore AB, Uppsala, Sweden) performed at 25° C. as described previously 20. […] Hepes, pH 7.4, containing 0.15 M NaCl, 0.005% surfactant P20 (HBS) was used as running buffer. […] All other reagents were purchased from BIAcore. […] The remaining activated carboxyl groups were blocked with 1 M ethanolamine (pH 8.5). Subsequently, the flow cells were extensively washed with HBS to generate a stable baseline. […] The flow cells were regenerated by two consecutive 10-second pulses with 10 mM NaOH. Data was analyzed by BIAevaluation software 4.1 (BIAcore).

[4] = molecular target: T3, human B7-H2Ig fusion protein; test: SPR (BIAcore 3000); ICOSIg injected over B7-H2Ig coupled to a CM5 chip; 1:1 interaction model
Method: as §1, §2

[5] = molecular target: T3, human B7-H2Ig fusion protein; test: SPR (BIAcore 3000), ICOSIg injected over B7-H2Ig coupled at 500 RU, 1:1 fit
Method: as §2, with “Protein” for “Surface Plasmon Resonance. Protein”, “(3).” for “20.”, “pulse” for “pulses”

T1 sequence (P10747 19-220): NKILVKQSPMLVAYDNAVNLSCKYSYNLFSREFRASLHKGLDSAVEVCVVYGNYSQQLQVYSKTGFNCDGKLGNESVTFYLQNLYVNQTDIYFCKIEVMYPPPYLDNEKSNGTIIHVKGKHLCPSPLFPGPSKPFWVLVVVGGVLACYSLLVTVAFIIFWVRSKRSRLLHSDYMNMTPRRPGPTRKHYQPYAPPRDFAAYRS

binding result [1]: no binding | binding result [2]: no binding | fold higher affinity than CD28 for binding B7-H2 [3]: ~100 fold | koff [4]: 0.004 s⁻¹ | kon [4]: 240000 M⁻¹ s⁻¹ | Kd [5]: 16 nM
B1: human ICOSIg fusion protein (Fc fusion)
chain: EINGSANYEMFIFHNGGVQILCKYPDIVQQFKMQLLKGGQILCDLTKTKGSGNTVSIKSLKFCHSQLSNNSVSFFLYNLDHSHANYYFCNLSIFDPPPFKVTLTGGYLHIYESQLCCQLKF
notes: Bought from R&D Systems; Ig (Fc) part not given
